From patent US6383734B1, “Method to determine inhibition of PAK3 activation of Raf-1” (Advanced Research and Technology Institute, Inc., priority 1998, dated 2002)

Tested on: Raf-1 serine 338/339
Experiment: In vitro kinase assay with Raf-1 peptide and Raf-CR3 as substrates
Assay type: biochemical, human
Conditions: PAK3 immunoprecipitated from rat spleen lysates, FIG. 4b
Method: B. Kinase assays. Kinase samples were assessed for their ability to phosphorylate 500 μM Raf-1 peptide (33,[…]345) (SEQ ID NO:4) in the presence of 500 μMATP (containing 2 μCi [γ-^32P]-ATP at 30° C. for 10 minutes. Incubations were analyzed by P-81 phosphocellulose paper assay. Phosphorylation of serine 338/339 in Raf-CR3 was determined by similar incubations containing 1 μg of substrate at 30° C. for 30-60 minutes. Proteins were resolved by SDS-PAGE, transferred to Immobilon-P and the dried, Ponceau S-stained membranes were autoradiographed. Raf-1 kinase activity was measured by the coupled assay method using GST-Mek 1, GST-Erk1 and myelin basic protein by the method of D. Stokoe et al., Science, 264, 1463 (1994).
D. Expression of recombinant Raf-CR3 in E. Coli. DNA sequences encoding residues 307-648 of human c-Raf-1 were amplified by polymerase chain reaction using the 5′-primer […] (SEQ ID NO:5) and the 3′-primer […] (SEQ ID NO:6). The amplified DNA was purified, digested with EcoRI and XhoI and cloned into the Stratagene pCAL-n vector. The entire Raf-CR3 coding sequence was verified by termination reaction PCR DNA sequencing. Raf-CR3 D338E339 and A338A339 substitution mutants were generated by site-directed mutagenesis using the Promega Altered SitesTM in vitro mutagenesis system. Raf-CR3-calmodulin binding protein fusions were expressed in E. coli strain BL21 (pLysS). […]

B1: Immunoprecipitated PAK3: full-length PAK3 immunoprecipitated directly from rat spleen lysates with an anti-PAK3 antibody (protein)
chain: SDNGELEDKPPAPPVRMSSTIFSTGGKDPLSANHSLKPLPSVPEEKKPRNKIISIFSSTEKGSKKKEKERPEISPPSDFEHTIHVGFDAVTGEFTGMPEQWARLLQTSNITKLEQKKNPQAVLDVLKFYDSNTVKQKYLSFTPPEKDGFPSGTPALNTKGSETSAVVTEEDDDDEDAAPPVIAPRPDHTKSIYTRSVIDPIPAPVGDSNVDSGAKSSDKQKKKAKMTDEEIMEKLRTIVSIGDPKKKYTRYEKIGQGASGTVFTATDVALGQEVAIKQINLQKQPKKELIINEILVMKELKNPNIVNFLDSYLVGDELFVVMEYLAGGSLTDVVTETCMDEAQIAAVCRECLQALEFLHANQVIHRDIKSDNVLLGMEGSVKLTDFGFCAQITPEQSKRSTMVGTPYWMAPEVVTRKAYGPKVDIWSLGIMAIEMVEGEPPYLNENPLRALYLIATNGTPELQNPEKLSPIFRDFLNRCLEMDVEKRGSAKELLQHPFLKLAKPLSSLTPLILAAKEAMKSNR
- phosphate incorporated into wild type Raf-CR3 versus Raf-CR3[D338E339] or Raf-CR3[A338A339] mutants: 4 fold
